USRE46376 (Wyeth LLC, dated 2017)

B1: B9-30 mAb (antibody, V domains shown)
VH: QVQLQQPGAEVVKPGAPVKLSCKASGYPFTNYWMNWVKQRPGRGLEWIGRIDPSNSEIYYNQKFKDKATLTVDKSSSTAYIQLSSLTSEDSAVYYCASGHYGSIFAYWGQGTTLTVSS
VL: VQITQSPSYLAASPGETITINCRASKSISKYLAWYQEKPGKTNKLLIYSGSTLQSGIPSRFSGSRSGTDFTLIISSLEPEDSAMYYCQQHNEYPLTFGAGTKLELKR
B2: B9-30 mAb (C. difficile TcdB neutralizing antibody) (antibody, V domains shown)
VH: B1 VH
VL: B1 VL

What was measured:
[1] = molecular target: wild-type C. difficile toxin B (TcdB) (Clostridium difficile strain 630, UniProt P18177 2-2366); assay: binding specificity, Table 18
wild-type C. difficile toxin B (TcdB), sequence (P18177 2-2366 limits assumed): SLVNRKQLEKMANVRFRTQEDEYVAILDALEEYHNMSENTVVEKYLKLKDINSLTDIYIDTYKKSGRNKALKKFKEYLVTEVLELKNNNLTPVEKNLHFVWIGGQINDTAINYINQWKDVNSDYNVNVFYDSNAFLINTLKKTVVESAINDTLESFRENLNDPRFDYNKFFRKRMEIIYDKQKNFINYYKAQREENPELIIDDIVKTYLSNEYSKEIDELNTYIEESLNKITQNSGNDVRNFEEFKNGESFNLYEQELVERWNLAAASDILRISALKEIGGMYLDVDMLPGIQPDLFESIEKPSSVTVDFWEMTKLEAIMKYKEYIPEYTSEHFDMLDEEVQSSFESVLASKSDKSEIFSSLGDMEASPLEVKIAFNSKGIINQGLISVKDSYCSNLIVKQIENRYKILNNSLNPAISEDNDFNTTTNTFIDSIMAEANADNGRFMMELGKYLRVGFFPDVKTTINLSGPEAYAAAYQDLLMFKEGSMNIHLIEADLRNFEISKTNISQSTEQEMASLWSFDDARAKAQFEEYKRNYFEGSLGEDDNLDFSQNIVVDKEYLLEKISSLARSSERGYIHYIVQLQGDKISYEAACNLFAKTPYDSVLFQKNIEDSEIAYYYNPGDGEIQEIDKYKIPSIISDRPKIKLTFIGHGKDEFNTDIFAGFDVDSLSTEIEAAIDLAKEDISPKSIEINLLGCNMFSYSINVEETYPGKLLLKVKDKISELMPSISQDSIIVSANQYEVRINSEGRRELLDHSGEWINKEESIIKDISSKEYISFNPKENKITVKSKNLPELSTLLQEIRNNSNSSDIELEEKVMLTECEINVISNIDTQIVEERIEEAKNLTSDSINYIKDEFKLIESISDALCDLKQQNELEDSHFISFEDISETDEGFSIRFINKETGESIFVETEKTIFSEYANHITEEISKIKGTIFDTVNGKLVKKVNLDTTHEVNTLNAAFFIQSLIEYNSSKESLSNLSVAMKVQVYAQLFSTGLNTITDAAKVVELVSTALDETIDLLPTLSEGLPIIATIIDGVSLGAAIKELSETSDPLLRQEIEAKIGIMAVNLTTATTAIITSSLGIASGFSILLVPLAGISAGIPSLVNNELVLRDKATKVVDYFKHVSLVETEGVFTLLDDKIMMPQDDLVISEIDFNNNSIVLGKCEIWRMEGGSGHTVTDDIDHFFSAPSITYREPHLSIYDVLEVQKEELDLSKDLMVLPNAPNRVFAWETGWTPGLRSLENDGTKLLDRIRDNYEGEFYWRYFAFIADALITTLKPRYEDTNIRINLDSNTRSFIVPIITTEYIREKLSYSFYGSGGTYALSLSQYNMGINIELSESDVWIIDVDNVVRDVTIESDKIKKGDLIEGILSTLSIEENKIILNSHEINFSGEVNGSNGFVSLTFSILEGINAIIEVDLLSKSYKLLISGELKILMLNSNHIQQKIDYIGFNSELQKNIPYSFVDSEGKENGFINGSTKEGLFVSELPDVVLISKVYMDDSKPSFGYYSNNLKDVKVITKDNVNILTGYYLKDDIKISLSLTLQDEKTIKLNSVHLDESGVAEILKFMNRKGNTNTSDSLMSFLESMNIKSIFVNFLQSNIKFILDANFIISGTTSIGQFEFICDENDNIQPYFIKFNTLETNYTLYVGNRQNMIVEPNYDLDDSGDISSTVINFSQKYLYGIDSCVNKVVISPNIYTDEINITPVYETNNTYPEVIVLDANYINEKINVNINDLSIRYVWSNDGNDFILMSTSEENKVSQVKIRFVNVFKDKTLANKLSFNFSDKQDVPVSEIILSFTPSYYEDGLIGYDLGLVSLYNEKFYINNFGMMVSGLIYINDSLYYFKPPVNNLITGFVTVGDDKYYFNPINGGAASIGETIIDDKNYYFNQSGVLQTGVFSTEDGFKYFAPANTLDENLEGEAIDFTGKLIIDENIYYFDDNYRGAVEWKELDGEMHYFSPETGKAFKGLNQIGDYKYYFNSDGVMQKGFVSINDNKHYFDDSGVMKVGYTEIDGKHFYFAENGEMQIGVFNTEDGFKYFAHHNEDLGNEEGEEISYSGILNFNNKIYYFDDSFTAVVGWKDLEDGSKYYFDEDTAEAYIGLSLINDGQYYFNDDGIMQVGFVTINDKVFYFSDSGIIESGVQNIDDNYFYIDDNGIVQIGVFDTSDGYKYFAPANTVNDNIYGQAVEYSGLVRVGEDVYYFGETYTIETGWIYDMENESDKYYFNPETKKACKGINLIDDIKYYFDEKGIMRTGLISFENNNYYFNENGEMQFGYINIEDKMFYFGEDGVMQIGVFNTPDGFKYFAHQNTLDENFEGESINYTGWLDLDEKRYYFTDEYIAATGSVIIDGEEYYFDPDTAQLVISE

[2] = molecular target: Commercial, Control Toxin B wt (List Biologicals) (Clostridium difficile, UniProt P18177 2-2366); assay: dot blot, non-denaturing conditions
Commercial, Control Toxin B wt (List Biologicals), sequence (P18177 2-2366 limits assumed): as above

Binder | binding result [1] | binding result [2]
B1 | binds | –
B2 | – | binds
